# According to patent US20100260765A1 (AstraZeneca / MedImmune, published 2010):
# Changes are numbered by the printed parent chain.
# B1: 32B2 (antibody, V domains shown)
# VH: EVQLLESGGGLVQPGGSLRLSCAASGFTFSNYAMSWVRQAPGKGLDWVSAISGRGGSTYYADSVKGRFTISRDNSKNTLFLLMNSLRAEDTAVYYCAKASGDDWGQGTLVTVSS
# VL: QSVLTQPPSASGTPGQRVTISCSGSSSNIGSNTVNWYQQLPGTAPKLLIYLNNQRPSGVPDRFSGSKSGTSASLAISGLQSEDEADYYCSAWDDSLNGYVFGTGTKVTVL
# B2: 30H10 (antibody, V domains shown)
# VH: B1 VH with D46E, R54S, S57I, L82Q, D103N, T111S
# VL: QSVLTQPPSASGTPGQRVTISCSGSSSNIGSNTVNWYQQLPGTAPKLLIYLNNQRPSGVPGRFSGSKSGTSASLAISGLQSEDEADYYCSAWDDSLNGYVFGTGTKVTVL
# B3: 29A3 (antibody, V domains shown)
# VH: QVQLQESGPGLVKPSETLSLTCTVSGGSISSYFWSWIRQPAGKGLEWIGRIYFSGRTNYNPSLKSRVTMSVETSKNQFSLKLNSVTAADTAVYYCARDGGWNYDVAFDYWGQGTLVTVSS
# VL: QAVLTQPSSLSASPGASASLTCTLRSGINVGTYRIYWYQQKPGSPPQYLLRYKSDSDQLQGSGVPSRFSGSKDASANAGILLISGLQSEDEADYYCMVWHSNTWVFGGGTKLTVL
# B4: 30F6 (antibody, V domains shown)
# VH: QVQLVESGGGVVQPGRSLRLSCAASGFTFSTYGMHWVRQAPGKGLEWVAVIWYDGSNKYYADSVKGRFTISRDNSKNTLYLQMNSLRAEDTAVYYCACSYWNDDYYYGMDVWGQGTTVTVSS
# VL: DIQMTQSPSSLSASVGDRVIITCRASQNISSYLIWYQQKPGKAPNLLIHTTSSLQRGVPSRFSGSGSGTDFTLTISSLQPEDFATYYCQQSYSAPLTFGGGTKVEIK
# B5: 21H6 (antibody, V domains shown)
# VH: QVQLVESGGGLVKPGGSLRLSCAASGFTFSDYYMSWIRQAPGKGLEWVSYISNSGITIYYADSVKGRFTISRDNAKNSLYLQMNSLRAGDTAVYYCAREEWYSSRWYRNFDYWGQGTLVTVSS
# VL: DIQMTQFSSSLSASVGDRVTITCRASQSISRYLNWYQQKPGKAPKLLIYAASSLQSGVPSRFNGSGSGTDFTLTISSLQPEDFATYYCQQSYSAPLTFGGGTKVEIK
# B6: 30D7 (antibody, V domains shown)
# VH: QVPLVESGGGVVQPGRSLRLSCAASGFTFSSYGMHWVRQAPGKGLEWVAVIWYDGSNKYYADSVKGRFTISRDNSKNTLYLQMNSLRAEDTAVYYCARGVTMVRGVIIARYYYGLDVWGQGTTVTVSS
# VL: DIVMTQTPLSSPVTLGQPASISCRSSQSLVHSDGNTYLSWLQQRPGQPPRLLIYKISNRFFGVPDRFSGSGAGTDFTLKIGRVEAEDVGLYYCMQSTQFPLTFGGGTKVEIK
# B7: 29H3 (antibody, V domains shown)
# VH: QVQLVQSGAEVKKPGASVKVSCKASGYTFTSYDINWVRQATGQGLEWMGWMNPNSGKTGYAQKFQGRVTMTRNTSINTAYMELSSLRSEDTAVYYCARGGYSNLGWFDPWGQGTLVTVSS
# VL: DIQMTQSPSSVSASVGDRVTITCRASQGISSWLVWYHQKPGKAPKLLIYGASSLQSGVPSRFSGSGSGTDFTLTISSLQPEDFATYYCQQANNFPFTFGPGTKVDIK
# B8: 22B8 (antibody, V domains shown)
# VH: QLQLQESGPGLVKPSETLSLTCTVSGGSISSRYYYWGWVRQPPGKGLEWIGTIYYSGHTYYNPSLKTRVTISVDTSKNQFSLKLISVTAADTAVYYCATQQLVLYYFDFWGQGTLVTVSS
# VL: EIVLTQSPGTLSLSPGERAALSCRASQSISSSYLAWYQQRPGQAPRLLIYGASSRATGIPDRFNGSGSGTDFTLTISRLEPEDFAVYYCQQFGSSITFGQGTRLEIK
# Target: T1, KDR (human, UniProt P35968 20-1356)
# Assay: cell-based or functional assay
# T1 sequence (P35968 20-1356): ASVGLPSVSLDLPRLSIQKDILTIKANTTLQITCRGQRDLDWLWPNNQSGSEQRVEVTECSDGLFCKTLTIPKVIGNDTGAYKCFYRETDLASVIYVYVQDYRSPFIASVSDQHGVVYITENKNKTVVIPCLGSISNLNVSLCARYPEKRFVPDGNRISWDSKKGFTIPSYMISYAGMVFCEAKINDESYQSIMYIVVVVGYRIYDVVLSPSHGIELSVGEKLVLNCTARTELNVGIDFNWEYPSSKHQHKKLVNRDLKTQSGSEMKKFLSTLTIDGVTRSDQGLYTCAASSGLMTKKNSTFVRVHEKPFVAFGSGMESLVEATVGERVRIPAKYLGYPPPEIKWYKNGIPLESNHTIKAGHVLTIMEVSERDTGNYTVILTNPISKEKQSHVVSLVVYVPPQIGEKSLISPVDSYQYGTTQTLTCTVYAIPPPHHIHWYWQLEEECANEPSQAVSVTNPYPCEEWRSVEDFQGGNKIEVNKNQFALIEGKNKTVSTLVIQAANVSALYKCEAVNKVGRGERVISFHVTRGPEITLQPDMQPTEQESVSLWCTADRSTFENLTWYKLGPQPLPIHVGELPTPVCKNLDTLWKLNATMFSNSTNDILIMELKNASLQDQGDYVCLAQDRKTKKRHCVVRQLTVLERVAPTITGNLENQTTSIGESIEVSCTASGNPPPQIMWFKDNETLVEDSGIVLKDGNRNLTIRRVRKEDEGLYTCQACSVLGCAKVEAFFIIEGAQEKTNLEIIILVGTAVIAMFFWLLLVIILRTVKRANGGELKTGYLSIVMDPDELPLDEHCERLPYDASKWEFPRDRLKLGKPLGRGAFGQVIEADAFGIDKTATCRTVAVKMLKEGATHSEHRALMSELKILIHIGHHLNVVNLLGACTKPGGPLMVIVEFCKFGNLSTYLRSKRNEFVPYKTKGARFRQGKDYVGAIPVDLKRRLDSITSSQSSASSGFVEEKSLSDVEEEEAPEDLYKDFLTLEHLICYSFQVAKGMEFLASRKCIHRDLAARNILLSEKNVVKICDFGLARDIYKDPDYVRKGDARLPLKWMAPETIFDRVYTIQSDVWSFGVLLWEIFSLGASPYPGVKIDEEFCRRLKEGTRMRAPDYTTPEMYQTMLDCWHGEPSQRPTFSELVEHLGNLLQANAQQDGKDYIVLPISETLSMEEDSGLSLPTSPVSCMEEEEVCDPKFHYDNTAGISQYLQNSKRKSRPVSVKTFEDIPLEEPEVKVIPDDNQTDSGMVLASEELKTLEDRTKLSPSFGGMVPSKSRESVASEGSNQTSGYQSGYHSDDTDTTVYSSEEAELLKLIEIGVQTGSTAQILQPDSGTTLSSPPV
"% Inhibition of VEGF165-mediated 6-keto Prostaglandin F1α release at 133 nM Antibody Concentration, Average [%]","% Inhibition of VEGF165-mediated 6-keto Prostaglandin F1α release at 133 nM Antibody Concentration, N = 1 [%]","% Inhibition of VEGF165-mediated 6-keto Prostaglandin F1α release at 133 nM Antibody Concentration, N = 2 [%]",Binder
6,3,9,B1
10,10,–,B2
13,11,16,B3
79,68,89,B4
100,104,96,B5
10,4,15,B6
18,14,22,B7
72,67,76,B8

# Target: T1, KDR
# Assay: cell-based or functional assay
# Remark: another data set of the same source
"Activity at 133 nM (% Inhibition), 1-hour Pre-incubation at 4° C., Average [%]","Activity at 133 nM (% Inhibition), 1-hour Pre-incubation at 4° C., N = 1 [%]","Activity at 133 nM (% Inhibition), 1-hour Pre-incubation at 4° C., N = 2 [%]",Binder
29,25,33,B1
26,31,21,B2
23,25,20,B3
84,84,85,B4
74,74,75,B5
27,26,28,B6
50,45,55,B7
76,75,76,B8

# Target: T1, KDR
# Assay: cell-based or functional assay
# Remark: another data set of the same source
"% of Max VEGF KDR pTyr Activity (at 133 nM antibody concentration), Average [%]","% of Max VEGF KDR pTyr Activity (at 133 nM antibody concentration), N = 1 [%]","% of Max VEGF KDR pTyr Activity (at 133 nM antibody concentration), N = 2 [%]",Binder
11,12,10,B1
12,12,13,B2
16,15,17,B3
13,14,13,B4
11,10,12,B5
12,12,12,B6
16,20,11,B7
7,9,5,B8

# Target: T1, KDR
# Assay: cell-based or functional assay
# Remark: another data set of the same source
Binder,"Activity at 133 nM Antibody Concentration (% Survival Inhibition), Average [%]","Activity at 133 nM Antibody Concentration (% Survival Inhibition), N = 1 [%]","Activity at 133 nM Antibody Concentration (% Survival Inhibition), N = 2 [%]"
B1,-21,-13,-29
B2,-115,-84,-147
B3,-111,-65,-156
B4,82,91,74
B5,91,105,77
B6,-51,-9,-92
B7,-70,-5,-136
B8,88,88,87

# Target: T1, KDR
# Assay: cell-based or functional assay
# Remark: another data set of the same source
"Activity at 133 nM (% Inhibition), 24-hour Pre-incubation at 37° C., Average [%]","Activity at 133 nM (% Inhibition), 24-hour Pre-incubation at 37° C., N = 1 [%]","Activity at 133 nM (% Inhibition), 24-hour Pre-incubation at 37° C., N = 2 [%]",Binder
49,38,61,B1
62,48,77,B2
11,7,15,B3
55,60,51,B4
27,35,19,B5
38,39,37,B6
19,1,36,B7
99,82,115,B8
